For one molecule, FRET efficiency results are on record in paper doi:10.1101/2021.03.23.436655.

The experiment concerns the target fluorescent tagged eIF4E-3 (Drosophila melanogaster). The experiment is described as follows: FRET or BRET.

B1: fluorescent tagged Me31B (FRET partner of eIF4E-3) (natural protein)
chain: MMTEKLNSGHTNLTSKGIINDLQIAGNTSDDMGWKSKLKLPPKDNRFKTTDVTDTRGNEFEEFCLKRELLMGIFEKGWERPSPIQEAAIPIALSGKDVLARAKNGTGKTGAYCIPVLEQIDPTKDYIQALVMVPTRELALQTSQICIELAKHLDIRVMVTTGGTILKDDILRIYQKVQLIIATPGRILDLMDKKVADMSHCRILVLDEADKLLSLDFQGMLDHVILKLPKDPQILLFSATFPLTVKNFMEKHLREPYEINLMEELTLKGVTQYYAFVQERQKVHCLNTLFSKLQINQSIIFCNSTQRVELLAKKITELGYCCYYIHAKMAQAHRNRVFHDFRQGLCRNLVCSDLFTRGIDVQAVNVVINFDFPRMAETYLHRIGRSGRFGHLGIAINLITYEDRFDLHRIEKELGTEIKPIPKVIDPALYVANVGASVGDTCNNSDLNNSANEEGNVSK
For the molecule B1, the FRET efficiency was found to be 25%.
